Assay [1] has as its target T1, H3 (17-32) K23me3 peptide, fluorescein-labelled, P68431.
T1 chain: RKQLATKAARKSAPAT
The experiment in a line: fluorescence polarization. The note with it: chain shown with the change. (Polarisation of emitted light reports the rotation of a fluorescent probe.)

In assay [2] the target is H3 (17-32) K23me3 peptide, fluorescein-labelled (UniProt P68431). In words: fluorescence polarisation; fluorescein-labelled histone peptide 3 nM, KDM4 DTD titrated 0.1-100 μM; 30 mM HEPES, 150 mM NaCl pH 7.4, 0.01% Triton X-100.

B1: KDM4A double tudor domain (KDM4A-DTD), HaloTag-tagged, wild type, O75164 N931D; D939R; D945R (protein)
chain: ALQSITAGQKVISKHKNGRFYQCEVVRLTTETFYEVDFDDGSFSRNLYPERIVSQDCLQFGPPAEGEVVQVRWTDGQVYGAKFVASHPIQMYQVEFEDGSQLVVKRDDVYTLDEELP
In general, Kd refers to the free concentration of one partner at which half of the binding sites on the other are occupied at equilibrium, for simple one-to-one binding. High values mean a looser complex, low ones a tighter complex. As for B1, the Kd in assay [1] worked out at 3.1 µM.

B2: KDM4A-DTD N931D (domain or fragment)
chain: ALQSITAGQKVISKHKNGRFYQCEVVRLTTETFYEVDFDDGSFSDNLYPEDIVSQDCLQFGPPAEGEVVQVRWTDGQVYGAKFVASHPIQMYQVEFEDGSQLVVKRDDVYTLDEELP
B2: the Kd in assay [2] turned out to be 0.85 µM.

B3: KDM4A-DTD N931R (domain or fragment)
chain: ALQSITAGQKVISKHKNGRFYQCEVVRLTTETFYEVRFDDGSFSDNLYPEDIVSQDCLQFGPPAEGEVVQVRWTDGQVYGAKFVASHPIQMYQVEFEDGSQLVVKRDDVYTLDEELP
On to B3, for which the equilibrium dissociation constant (Kd) in assay [2] was determined as 73.9 µM.

B4: KDM4A-DTD Y973A (aromatic cage substitution) (domain or fragment)
chain: ALQSITAGQKVISKHKNGRFYQCEVVRLTTETFYEVNFDDGSFSDNLYPEDIVSQDCLQFGPPAEGEVVQVRWTDGQVAGAKFVASHPIQMYQVEFEDGSQLVVKRDDVYTLDEELP
As for B4, the Kd in assay [2] was found to be 285 µM.

B5: KDM4A-DTD N940A (domain or fragment)
chain: ALQSITAGQKVISKHKNGRFYQCEVVRLTTETFYEVNFDDGSFSDALYPEDIVSQDCLQFGPPAEGEVVQVRWTDGQVYGAKFVASHPIQMYQVEFEDGSQLVVKRDDVYTLDEELP
Consider B5, for which the Kd in assay [2] is 57.4 µM.

(Values after article PMC5114558, “Reader domain specificity and lysine demethylase-4 family function” (Nature Communications, 2016).)
